This note sets out measurements from patent publication US20040018971A1.

In one assay the target is HLA-A*2401 (human). Nature of the assay: inhibition of 125I probe peptide binding to purified HLA; IC50 standard/IC50 test.
Details: not given
Turning to RFRELVSEF [HER2/neu 968-976], the relative binding ratio was 0.018.

As for TFGAKPYDGI [HER2/neu 917-926], the relative binding ratio was determined as 0.0002.

Take RYSEDPTVPL [HER2/neu 1111-1120]: the relative binding ratio was found to be 0.012.

As to CMQIAKGMSYL [HER2/neu 826-836], the relative binding ratio was -0.0003.

For EYLVPQQGF [HER2/neu 1022-1030], the relative binding ratio is 0.0014.

In the case of AFGTVYKGIW [HER2/neu 730-739], the relative binding ratio is 0.001.

Consider AWPDSLPDL [HER2/neu 414-422], for which the relative binding ratio was found to be 0.0041.

For AFGTVYKGI [HER2/neu 730-738], the relative binding ratio amounted to 0.0002.

In the case of KWMALESI [HER2/neu 887-894], the relative binding ratio amounted to 0.008.

For EFAGCKKIF [HER2/neu 363-371], the relative binding ratio turned out to be 0.0003.

On to EYLVPQQGFF [HER2/neu 1022-1031], for which the relative binding ratio amounted to 0.012.

Consider IMVKCWMI [HER2/neu 954-961], for which the relative binding ratio was 0.021.

As for CYGLGMEHL [HER2/neu 342-350], the relative binding ratio turned out to be 0.018.

Consider VWSYGVTVW [HER2/neu 905-913], for which the relative binding ratio turned out to be 0.08.

On to EYVNARHCL [HER2/neu 553-561], for which the relative binding ratio came out at 0.0061.

As to RWGLLLAL [HER2/neu 8-15], the relative binding ratio worked out at 0.025.

As for LMPYGCLL [HER2/neu 800-807], the relative binding ratio is 0.0076.

On to GYLYISAW [HER2/neu 408-415], for which the relative binding ratio stood at 0.0044.

CYQDTILW [HER2/neu 162-169]: the relative binding ratio came out at 0.012.

For the molecule PYDGIPAREI [HER2/neu 922-931], the relative binding ratio stood at 0.0005.

Regarding CYQDTILWKDI [HER2/neu 162-172], the relative binding ratio is 0.0016.

With LFEDNYAL [HER2/neu 107-114], the relative binding ratio stood at 0.0006.

As for IWIPDGENVKI [HER2/neu 738-748], the relative binding ratio was 0.0027.

Consider LFEDNYALAVL [HER2/neu 107-117], for which the relative binding ratio was 0.0006.

For the molecule SYMPIWKF [HER2/neu 609-616], the relative binding ratio worked out at 0.32.

Consider VFQNLQVI [HER2/neu 424-431], for which the relative binding ratio is -0.0003.

Consider RMARDPQRF [HER2/neu 978-986], for which the relative binding ratio was 0.0032.

Take KWMALESIL [HER2/neu 887-895]: the relative binding ratio stood at 0.015.

As for KYTMRRLL [HER2/neu 684-691], the relative binding ratio was found to be 0.0024.

Turning to SYGVTVWEL [HER2/neu 907-915], the relative binding ratio was 0.12.

As for SWLGLRSLR [HER2/neu 451-459], the relative binding ratio is -0.0003.

As for PMCKGSRCW [HER2/neu 197-205], the relative binding ratio amounted to 0.0011.

Turning to RFTHQSDVW [HER2/neu 898-906], the relative binding ratio is 0.011.

Regarding IFHKNNQL [HER2/neu 172-179], the relative binding ratio is -0.0003.

As for AFGTVYKGIWI [HER2/neu 730-740], the relative binding ratio was determined as 0.0008.

Consider AFSPAFDNL [HER2/neu 1212-1220], for which the relative binding ratio was found to be 0.0011.

For the molecule TMRRLLQETEL [HER2/neu 686-696], the relative binding ratio was -0.0003.

Take GMGAAKGL [HER2/neu 1091-1098]: the relative binding ratio is -0.0003.

On to TYLPTNASLSF [HER2/neu 63-73], for which the relative binding ratio was 8.9.

Consider VFETLEEI [HER2/neu 399-406], for which the relative binding ratio was -0.0003.

Regarding TYLPTNASL [HER2/neu 63-71], the relative binding ratio stood at 0.038.

Consider AYSLTLQGLGI [HER2/neu 440-450], for which the relative binding ratio was 0.023.

In the case of CFVHTVPW [HER2/neu 475-482], the relative binding ratio came to 0.019.

Turning to CFVHTVPWDQL [HER2/neu 475-485], the relative binding ratio amounted to 0.0003.

For the molecule SYLEDVRL [HER2/neu 834-841], the relative binding ratio came to 0.0059.

With AFDNLYYW [HER2/neu 1216-1223], the relative binding ratio stood at 0.0039.

Consider AYSLTLQGL [HER2/neu 440-448], for which the relative binding ratio worked out at 0.13.

LFRNPHQAL [HER2/neu 485-493]: the relative binding ratio worked out at 0.0002.

Regarding LYISAWPDSL [HER2/neu 410-419], the relative binding ratio turned out to be 0.084.

Regarding PYVSRLLGI [HER2/neu 780-788], the relative binding ratio came out at 0.17.

DFGLARLL [HER2/neu 863-870]: the relative binding ratio stood at 0.0005.

As to RWGLLLALL [HER2/neu 8-16], the relative binding ratio is 1.3.

Turning to SWLGLRSLREL [HER2/neu 451-461], the relative binding ratio worked out at 0.0036.

With EYHADGGKVPI [HER2/neu 876-886], the relative binding ratio is -0.0003.

As for SMPNPEGRYTF [HER2/neu 281-291], the relative binding ratio stood at 0.018.

As to VWSYGVTVWEL [HER2/neu 905-915], the relative binding ratio came to 0.092.

With RFVVIQNEDL [HER2/neu 985-994], the relative binding ratio was 0.0002.

In the case of GMGAAKGLQSL [HER2/neu 1091-1101], the relative binding ratio was -0.0003.

In the case of LFRNPHQALL [HER2/neu 485-494], the relative binding ratio was determined as 0.0014.

DFGLARLLDI [HER2/neu 863-872]: the relative binding ratio stood at 0.0002.

Take IFGSLAFL [HER2/neu 370-377]: the relative binding ratio came to 0.012.

HFNHSGICEL [HER2/neu 257-266]: the relative binding ratio was 0.0002.

Turning to EFAGCKKI [HER2/neu 363-370], the relative binding ratio was -0.0003.

The target of the next assay is HLA-A*2401 (purified HLA class I molecule) (human). Nature of the assay: competition with 125I-labelled probe peptide for purified HLA, gel filtration.
Details: not given
In general terms: Size exclusion chromatography separates by hydrodynamic size, large species first.
For VYMIMVKCW [HER2/neu peptide, position 951, 9 amino acids], the relative binding ratio (IC50 of standard peptide / IC50 of test peptide) came to 0.16.

With WMALESIL [HER2/neu peptide, position 888, 8 amino acids], the relative binding ratio (IC50 of standard peptide / IC50 of test peptide) is -0.0003.

On to VYMIMVKCWMI [HER2/neu peptide, position 951, 11 amino acids], for which the relative binding ratio (IC50 of standard peptide / IC50 of test peptide) worked out at 1.8.

Still in this assay, the particulars now being: scale: ratio.
For the molecule VYMIMVKCW [HER2/neu peptide, position 951, 9 amino acids], the relative binding ratio was 0.16.

With WMALESIL [HER2/neu peptide, position 888, 8 amino acids], the relative binding ratio was -0.0003.

VYMIMVKCWMI [HER2/neu peptide, position 951, 11 amino acids]: the relative binding ratio was 1.8.
